Results reported in PMC3892207 (Journal of the American Chemical Society, 2013).

Target: the molecule itself
Assay: SEC

B1: CP-Ser (αβ heterodimer of S100A8(C42S) and S100A9(C3S)) (complex, human)
chain 1: MLTELEKALNSIIDVYHKYSLIKGNFHAVYRDDLKKLLETESPQYIRKKGADVWFKELDINTDGAVNFQEFLILVIKMGVAAHKKSHEESHKE
chain 2: MTSKMSQLERNIETIINTFHQYSVKLGHPDTLNQGEFKELVRKDLQNFLKKENKNEKVIEHIMEDLDTNADKQLSFEEFIMLMARLTWASHEKMHEGDEGPGHHHKPGLGEGTP
B1: binds.

B2: CP-Ser-AHA(K106H) (αβ heterodimer) (complex, human)
chain 1: MLTELEKALNSIIDVYHKYSLIKGNFHAVYRDDLKKLLETESPQYIRKKGADVWFKELDINTDGAVNFQEFLILVIKMGVAAHKKSHEESHKE
chain 2: MTSKMSQLERNIETIINTFHQYSVKLGHPDTLNQGEFKELVRKDLQNFLKKENKNEKVIEHIMEDLDTNADKQLSFEEFIMLMARLTWASHEKMHEGDEGPGAHAHPGLGEGTP
B2: binds.

B3: CP-Ser-AHA (αβ heterodimer) (complex, human)
chain 1: MLTELEKALNSIIDVYHKYSLIKGNFHAVYRDDLKKLLETESPQYIRKKGADVWFKELDINTDGAVNFQEFLILVIKMGVAAHKKSHEESHKE
chain 2: MTSKMSQLERNIETIINTFHQYSVKLGHPDTLNQGEFKELVRKDLQNFLKKENKNEKVIEHIMEDLDTNADKQLSFEEFIMLMARLTWASHEKMHEGDEGPGAHAKPGLGEGTP
B3: binds.

B4: CP-Ser-AAA(L109H)(E111H) (αβ heterodimer) (complex, human)
chain 1: MLTELEKALNSIIDVYHKYSLIKGNFHAVYRDDLKKLLETESPQYIRKKGADVWFKELDINTDGAVNFQEFLILVIKMGVAAHKKSHEESHKE
chain 2: MTSKMSQLERNIETIINTFHQYSVKLGHPDTLNQGEFKELVRKDLQNFLKKENKNEKVIEHIMEDLDTNADKQLSFEEFIMLMARLTWASHEKMHEGDEGPGAAAKPGHGHGTP
B4: binds.

B5: CP-Ser(H105A) (αβ heterodimer) (complex, human)
chain 1: MLTELEKALNSIIDVYHKYSLIKGNFHAVYRDDLKKLLETESPQYIRKKGADVWFKELDINTDGAVNFQEFLILVIKMGVAAHKKSHEESHKE
chain 2: MTSKMSQLERNIETIINTFHQYSVKLGHPDTLNQGEFKELVRKDLQNFLKKENKNEKVIEHIMEDLDTNADKQLSFEEFIMLMARLTWASHEKMHEGDEGPGHHAKPGLGEGTP
B5: binds.

B6: CP-Ser-AAE (αβ heterodimer) (complex, human)
chain 1: MLTELEKALNSIIDVYHKYSLIKGNFHAVYRDDLKKLLETESPQYIRKKGADVWFKELDINTDGAVNFQEFLILVIKMGVAAHKKSHEESHKE
chain 2: MTSKMSQLERNIETIINTFHQYSVKLGHPDTLNQGEFKELVRKDLQNFLKKENKNEKVIEHIMEDLDTNADKQLSFEEFIMLMARLTWASHEKMHEGDEGPGAAEKPGLGEGTP
B6: binds.

B7: CP-Ser(E96A) (αβ heterodimer) (complex, human)
chain 1: MLTELEKALNSIIDVYHKYSLIKGNFHAVYRDDLKKLLETESPQYIRKKGADVWFKELDINTDGAVNFQEFLILVIKMGVAAHKKSHEESHKE
chain 2: MTSKMSQLERNIETIINTFHQYSVKLGHPDTLNQGEFKELVRKDLQNFLKKENKNEKVIEHIMEDLDTNADKQLSFEEFIMLMARLTWASHEKMHAGDEGPGHHHKPGLGEGTP
B7: binds.

B8: CP-Ser(E111A) (αβ heterodimer) (complex, human)
chain 1: MLTELEKALNSIIDVYHKYSLIKGNFHAVYRDDLKKLLETESPQYIRKKGADVWFKELDINTDGAVNFQEFLILVIKMGVAAHKKSHEESHKE
chain 2: MTSKMSQLERNIETIINTFHQYSVKLGHPDTLNQGEFKELVRKDLQNFLKKENKNEKVIEHIMEDLDTNADKQLSFEEFIMLMARLTWASHEKMHEGDEGPGHHHKPGLGAGTP
B8: binds.

B9: CP-Ser-mT (αβ heterodimer) (complex, human | mouse)
chain 1: MLTELEKALNSIIDVYHKYSLIKGNFHAVYRDDLKKLLETESPQYIRKKGADVWFKELDINTDGAVNFQEFLILVIKMGVAAHKKSHEESHKE
chain 2: MTSKMSQLERNIETIINTFHQYSVKLGHPDTLNQGEFKELVRKDLQNFLKKENKNEKVIEHIMEDLDTNADKQLSFEEFIMLMARLTWASHEKMHENNPRGHGHSHGKGCGK
B9: binds.

B10: CP-Ser(H103A) (αβ heterodimer) (complex, human)
chain 1: MLTELEKALNSIIDVYHKYSLIKGNFHAVYRDDLKKLLETESPQYIRKKGADVWFKELDINTDGAVNFQEFLILVIKMGVAAHKKSHEESHKE
chain 2: MTSKMSQLERNIETIINTFHQYSVKLGHPDTLNQGEFKELVRKDLQNFLKKENKNEKVIEHIMEDLDTNADKQLSFEEFIMLMARLTWASHEKMHEGDEGPGAHHKPGLGEGTP
B10: binds.

B11: CP-Ser-Δ101 (αβ heterodimer) (complex, human)
chain 1: MLTELEKALNSIIDVYHKYSLIKGNFHAVYRDDLKKLLETESPQYIRKKGADVWFKELDINTDGAVNFQEFLILVIKMGVAAHKKSHEESHKE
chain 2: MTSKMSQLERNIETIINTFHQYSVKLGHPDTLNQGEFKELVRKDLQNFLKKENKNEKVIEHIMEDLDTNADKQLSFEEFIMLMARLTWASHEKMHEGDEGP
B11: binds.

B12: CP-Ser(E99A) (αβ heterodimer) (complex, human)
chain 1: MLTELEKALNSIIDVYHKYSLIKGNFHAVYRDDLKKLLETESPQYIRKKGADVWFKELDINTDGAVNFQEFLILVIKMGVAAHKKSHEESHKE
chain 2: MTSKMSQLERNIETIINTFHQYSVKLGHPDTLNQGEFKELVRKDLQNFLKKENKNEKVIEHIMEDLDTNADKQLSFEEFIMLMARLTWASHEKMHEGDAGPGHHHKPGLGEGTP
B12: binds.

B13: CP-Ser-AAA (αβ heterodimer) (complex, human)
chain 1: MLTELEKALNSIIDVYHKYSLIKGNFHAVYRDDLKKLLETESPQYIRKKGADVWFKELDINTDGAVNFQEFLILVIKMGVAAHKKSHEESHKE
chain 2: MTSKMSQLERNIETIINTFHQYSVKLGHPDTLNQGEFKELVRKDLQNFLKKENKNEKVIEHIMEDLDTNADKQLSFEEFIMLMARLTWASHEKMHEGDEGPGAAAKPGLGEGTP
B13: binds.

B14: CP-Ser(K106A) (αβ heterodimer) (complex, human)
chain 1: MLTELEKALNSIIDVYHKYSLIKGNFHAVYRDDLKKLLETESPQYIRKKGADVWFKELDINTDGAVNFQEFLILVIKMGVAAHKKSHEESHKE
chain 2: MTSKMSQLERNIETIINTFHQYSVKLGHPDTLNQGEFKELVRKDLQNFLKKENKNEKVIEHIMEDLDTNADKQLSFEEFIMLMARLTWASHEKMHEGDEGPGHHHAPGLGEGTP
B14: binds.

B15: CP-Ser-AAA(K106H) (αβ heterodimer) (complex, human)
chain 1: MLTELEKALNSIIDVYHKYSLIKGNFHAVYRDDLKKLLETESPQYIRKKGADVWFKELDINTDGAVNFQEFLILVIKMGVAAHKKSHEESHKE
chain 2: MTSKMSQLERNIETIINTFHQYSVKLGHPDTLNQGEFKELVRKDLQNFLKKENKNEKVIEHIMEDLDTNADKQLSFEEFIMLMARLTWASHEKMHEGDEGPGAAAHPGLGEGTP
B15: binds.

B16: CP-Ser(D98A) (αβ heterodimer) (complex, human)
chain 1: MLTELEKALNSIIDVYHKYSLIKGNFHAVYRDDLKKLLETESPQYIRKKGADVWFKELDINTDGAVNFQEFLILVIKMGVAAHKKSHEESHKE
chain 2: MTSKMSQLERNIETIINTFHQYSVKLGHPDTLNQGEFKELVRKDLQNFLKKENKNEKVIEHIMEDLDTNADKQLSFEEFIMLMARLTWASHEKMHEGAEGPGHHHKPGLGEGTP
B16: binds.

B17: CP-Ser(H104A) (αβ heterodimer) (complex, human)
chain 1: MLTELEKALNSIIDVYHKYSLIKGNFHAVYRDDLKKLLETESPQYIRKKGADVWFKELDINTDGAVNFQEFLILVIKMGVAAHKKSHEESHKE
chain 2: MTSKMSQLERNIETIINTFHQYSVKLGHPDTLNQGEFKELVRKDLQNFLKKENKNEKVIEHIMEDLDTNADKQLSFEEFIMLMARLTWASHEKMHEGDEGPGHAHKPGLGEGTP
B17: binds.
